Laboratory results as given in paper PMC9927813, “Discovery of DNA aptamers targeting SARS-CoV-2 nucleocapsid protein and protein-binding epitopes for label-free COVID-19 diagnostics”.

B1: biotinylated tNSP2 (ssDNA)
DNA: CTGACTGTAACCACGTATTGCGTTCCAGTCCCTATGACCAACGTCACAATAAGTCGCATAGGTA
B2: tNSP2 (ssDNA)
DNA: B1 DNA
B3: tNSP12 (ssDNA)
DNA: TGTAACCACGTGGTTCGCCCAGTTCCGTTCAATACACTCAACCCTGCACGGCATAGGTA
B4: tNSP9 (ssDNA)
DNA: TGTAACCACGTGCTAGATTACGTAACTGGTTGCTACGGGTTTCATCCTCGGCATAGGTA
B5: NSP3 (ssDNA)
DNA: CTCCTCTGACTGTAACCACGCAGCGTCACGTGTTGTTCCCCATTGTACTGATTCGTCGTGGCATAGGTAGTCCAGAAGCC
B6: NSP2 (ssDNA)
DNA: CTCCTCTGACTGTAACCACGTATTGCGTTCCAGTCCCTATGACCAACGTCACAATAAGTCGCATAGGTAGTCCAGAAGCC
B7: A48 (ssDNA)
DNA: GCTGGATGTCGCTTACGACAATATTCCTTAGGGGCACCGCTACATTGACACATCCAGC
B8: NSP1 (ssDNA)
DNA: CTCCTCTGACTGTAACCACGGCGCAAGCCGGGGTGTACGTGTTATACGTGCGTGTATCGAGCATAGGTAGTCCAGAAGCC

These binders were tested against SARS-CoV-2 N protein, in-house (SARS-CoV-2 (wild type), UniProt P0DTC9 1-419) (assay: BLI; aptamer on streptavidin sensor, PBST; BLI ([…], DPBS + 0.5 mM MgCl2 + 1 mM CaCl2, pH 7.4; […] (PBST)). Conditions: protein: recombinant; chain copies: 2.

Q: For CAGCGTCACGTGTTGTTCCCCATTGTACTGATTCGTCGTGGCAT (ssDNA) [biotinylated tNSP3], which Kd is on record?
A: The Kd was 7.52 ± 0.5 nM.

What follows are binders tested against T1, SARS-CoV-2 nucleocapsid (N) protein, wild type (SARS-CoV-2 (wild type), UniProt P0DTC9 1-419) in the same assay as above. Conditions: protein: commercial; tags: His; chain copies: 2.

Q: For B1, which Kd is on record?
A: Its Kd is 4.51 ± 1.5 nM.

Q: Which Kd does the source give for CAGCGTCACGTGTTGTTCCCCATTGTACTGATTCGTCGTGGCAT (ssDNA) [biotinylated tNSP3] here?
A: Its Kd is 2.91 ± 1.02 nM.

Q: Which Kd does the source give for TAACCACGGCGCAAGCCGGGGTGTACGTGTTATACGTGCGTGTATCGAG (ssDNA) [biotinylated tNSP1] here?
A: The Kd was 4.83 ± 1.09 nM.

What follows are binders tested against T1, SARS-CoV-2 nucleocapsid (N) protein, … (assay: BLI; N protein on Ni-NTA sensor; BLI ([…], DPBS + 0.5 mM MgCl2 + 1 mM CaCl2, pH 7.4; […] (PBST)). Conditions: protein: commercial; tags: His; chain copies: 2.

Q: Which Kd does the source give for B2 here?
A: The Kd was 3.04 ± 1.53 nM.

Q: For CAGCGTCACGTGTTGTTCCCCATTGTACTGATTCGTCGTGGCAT (ssDNA) [tNSP3], which Kd is on record?
A: Its Kd is 5.77 ± 1.17 nM.

Q: With TAACCACGGCGCAAGCCGGGGTGTACGTGTTATACGTGCGTGTATCGAG (ssDNA) [tNSP1] as the binder, how does the Kd read?
A: The Kd was 4.53 ± 0.96 nM.

The binders below were run against SARS-CoV-2 S1 protein (SARS-CoV-2, UniProt P0DTC2 13-685) (assay: BLI; BLI ([…], DPBS + 0.5 mM MgCl2 + 1 mM CaCl2, pH 7.4; […] (PBST)). Conditions: protein: commercial.

Q: Does B1 bind?
A: Result: no binding

Q: Does CAGCGTCACGTGTTGTTCCCCATTGTACTGATTCGTCGTGGCAT (ssDNA) [biotinylated tNSP3] bind?
A: Result: no binding

Q: Does TAACCACGGCGCAAGCCGGGGTGTACGTGTTATACGTGCGTGTATCGAG (ssDNA) [biotinylated tNSP1] bind?
A: Result: no binding

What follows are binders tested against T1, SARS-CoV-2 nucleocapsid (N) protein, … in the same assay as above. Conditions: protein: commercial; tags: His; chain copies: 2.

Q: Which Kd does the source give for B3 here?
A: Its Kd is 6.05 ± 2.41 nM.

Q: Which Kd does the source give for B4 here?
A: The Kd was 22.2 ± 1.87 nM.

Q: ATTCATGCGCCAATAGTGGTTTGGAAATGTCTCCCCATACGCATAG (ssDNA) [tNSP5] was tested. Which Kd did it give?
A: Its Kd is 12.6 ± 2.56 nM.

Q: Which Kd does the source give for B5 here?
A: Its Kd is 8.6 ± 1.06 nM.

Q: With B6 as the binder, how does the Kd read?
A: The Kd was 4.38 ± 1.21 nM.

Q: B7 was tested. Which Kd did it give?
A: The Kd was 6.46 ± 1.04 nM.

Q: For CTTATGCACCAGGGGCCCGGTTCGGGCAGGCGCAAACACGGCATAGG (ssDNA) [tNSP10], which Kd is on record?
A: The Kd was 8.6 ± 1.2 nM.

Q: B8 was tested. Which Kd did it give?
A: The Kd was 7.86 ± 1.17 nM.
